Values quoted from earlier work, collected in paper PMC5501900.

Target: Vinculin tail tail (Homo sapiens) (UniProt P18206)

Kd: < 1 nM
Substance: Vinculin head head (from UniProt P18206)
